For one substance, channels not recovering from inactivation within 20 msec (two-pulse whole cell voltage clamp, FIG. 2) (fraction of channels) and percent of channels undergoing long-term inactivation (voltage dependence protocol, FIG. 4) results are on record in patent US20120244615A1.

For the assay, the target named is tetrodotoxin (TTX)-resistant variant of sodium channel Nav1.6. Kind of assay: cell-based or functional assay.

In the case of “full-length FHF2A protein (from UniProt Q92913 1-245)”, the channels not recovering from inactivation within 20 msec (two-pulse whole cell voltage clamp, FIG. 2) (fraction of channels) is 0.33 and the percent of channels undergoing long-term inactivation (voltage dependence protocol, FIG. 4) fell in the range of 35 to 40%.
